Usually koff stands for the rate constant with which the complex falls apart. The term IC50 denotes the concentration that inhibits the measured activity by half. What is called Kd is a measure of binding affinity in units of concentration. A word on the kon: it is the second-order rate constant of association.

The values below come from patent US20140120095A1 (Boehringer Ingelheim, published 2014).

Substitutions are numbered along the chain they refer to.

First the molecules themselves.
B1: DLLBII58A11 (VHH)
VHH: EVQLVESGGGLVQAGGSLRLSCTTSERTVSRYSMGWFRQAPGKEREAVATISWSGDSTYYADSVKGRFTISRDNTKNTLYLQIDSLKPEDTAVYYCVAKPNLKYGSYWPPRGYDYWGQGTQVTVSS
B2: DLLBII95F02 (VHH)
VHH: EVQLVESGGGSVQAGGSLRLSCAASGRTFSSYAMGWFRQAPGKEREFVAAINWSGGYTYYADSVRGRFTISRDNAKNTVYLQMNSLKPEDTAVYYCAAPAPGSSGYEYDYWGQGTQVTVSS
B3: DLLBII104C04 (VHH)
VHH: EVQLVESGGGLVQAGGSLRLSCAAAGSTFSSYVMGWYRQAPGKQRELVAHISTRGITYYADSVKGRFTISRDNAKNTMYLQMNSLKPEDTAVYYCNTRRNFLSNYWGQGTQVTVSS
B4: DLLBII83G01 (VHH)
VHH: EVQLVESGGGLVQAGGSLRLSCAASGRTFSNYIMGWFRQAPGKEREFVAGISRYADYTGYADSVKGRFTISRDNVKNTVYLRMNSLKPDDTAVYYCAANEGYCSGYGCYEDSGQYDYWGQGTQVTVSS
B5: DLLBII134D10 (VHH, not shown: small tags and cut ends)
VHH: EVQLVESGGGLVQPGGSLRLSCAASGFTIGSYDMSWVRRSPGKGPEWVSSINSGGGSTYYTDYVKGRFTISRDNAKNTLYLQMNSLKPEDTAVYYCAADRYIWARQGEYWGAYAYDYWGQGTQVTVSS
B6: DLLBII019 (VHH, not shown: small tags and cut ends)
VHH: B5 VHH with I29F, T61A, K87R, A114E, Q123L
B7: DLLBII021 (VHH, not shown: small tags and cut ends)
VHH: B5 VHH with I29F, S40A, T61A, K87R, A114E, Q123L
B8: DLLBII020 (VHH, not shown: small tags and cut ends)
VHH: B5 VHH with I29F, R39Q, T61A, K87R, A114E, Q123L
B9: DLLBII022 (VHH, not shown: small tags and cut ends)
VHH: B5 VHH with I29F, R39Q, S40A, T61A, K87R, A114E, Q123L

One experiment has as its target T1, recombinant human DLL4 (human, UniProt Q9NR61 25-522).
T1 construct: also called rhDLL4; hDLL4
The experiment in a line: Biacore off-rate, periplasmic extract. For orientation: In SPR one partner is held on a chip, and binding of the other changes the refractive index at the surface.
As to B1, the koff turned out to be 0.0016 s⁻¹.

Turning to B2, the dissociation rate constant (koff) came out at 0.00067 s⁻¹.

B3: the koff was 0.001 s⁻¹.

Regarding B4, the koff was 0.00041 s⁻¹.

Another experiment deals with T2, human DLL4 expressed on cells (CHO-hDLL4; HEK293-hDLL4) (human, UniProt Q9NR61 27-685). The experiment can be described thus: cell-based or functional assay.
For the molecule B5, the “IC50, DLL4-mediated reporter assay” value is 18 nM.

For a further experiment, the target named is T3, recombinant human DLL4 (C-terminally His-tagged extracellular domain, R&D Systems) (human, UniProt Q9NR61 25-522, biotinylated in the competition ELISA).
T3 construct: also called rhDLL4; hDLL4
The experiment can be described thus: competition ELISA, biotinylated hDLL4 to coated hNotch1-Fc. (In general: In an ELISA, binding on a coated surface is turned into a signal by an enzyme label.)
For the molecule B5, the concentration for half-maximal inhibition (IC50) was 1.3 nM.

For a further experiment, the target named is T4, human DLL4 overexpressed on cells (human, UniProt Q9NR61 27-685).
T4 construct: full length human DLL4 on CHO or HEK293 cells; also called CHO-hDLL4; CHO-hDII4
The experiment can be described thus: FMAT, labelled hNotch1-Fc on CHO-hDLL4, periplasmic extract. The source says: (§1) All calculations are based on the FL1_total signal which comprises the average of the fluorescence per well times the number of counts per well.
Regarding B1, the “% inh” value turned out to be 95%.

With B2, the “% inh” value is 81%.

Consider B3, for which the “% inh” value was 87%.

On to B4, for which the “% inh” value stood at 87%.

In another experiment the target is T3, recombinant human DLL4 (C-terminally …). The experiment in a line: competition ELISA hDLL4/hNotch1-Fc; summary table.
On to B5, for which the IC50 is 1.3 nM.

For the next experiment the target is unchanged. The experiment in a line: SPR (Biacore), recombinant human DLL4. Here is the method:
Kinetic analysis to determine the affinity of the DII4-VHH interaction is performed by Surface Plasmon Resonance (SPR) on a Biacore T100 instrument. […] Purified VHHs or Fab fragment are injected for 2 minutes at different concentrations (between 10 and 300 nM) and allowed to dissociate for 20 min at a flow rate of 45 μl/min. Between sample injections, the surfaces are regenerated with 10 mM glycine pH1.5 and 100 mM HCl. HBS-N (Hepes buffer pH7.4) is used as running buffer. If possible, data are evaluated by fitting a 1:1 interaction model (Langmuir binding) onto the binding curves. The affinity constant KD is calculated from resulting association and dissociation rate constants (kₐ) and […].
As to B6, the dissociation constant (Kd) came out at 1.3 nM, the koff worked out at 0.00074 s⁻¹ and the on-rate constant (kon) stood at 570000 M⁻¹ s⁻¹.

Regarding B7, the Kd came to 1 nM, the koff came out at 0.00057 s⁻¹ and the kon was determined as 560000 M⁻¹ s⁻¹.

For the molecule B8, the equilibrium dissociation constant (Kd) is 27 nM, the koff worked out at 0.0093 s⁻¹ and the kon worked out at 340000 M⁻¹ s⁻¹.

For B9, the Kd came out at 46 nM, the dissociation rate constant (koff) turned out to be 0.022 s⁻¹ and the kon came out at 470000 M⁻¹ s⁻¹.

A further experiment has as its target T2, human DLL4 expressed on cells …. The experiment in a line: competition FMAT, labelled hNotch1-Fc on CHO-hDLL4 cells.
In turn, B6 returned an IC50 of 3 nM.

Turning to B7, the IC50 is 2.1 nM.

As to B8, the IC50 worked out at 44.6 nM.

As to B9, the 50% inhibitory concentration (IC50) worked out at 95.4 nM.

For another experiment, the target named is T5, mouse DLL4 overexpressed on cells (mouse, UniProt Q9JI71 27-686).
T5 construct: whole, on cells; also called CHO-mDLL4; CHO-mDII4
T5 sequence (Q9JI71 27-686): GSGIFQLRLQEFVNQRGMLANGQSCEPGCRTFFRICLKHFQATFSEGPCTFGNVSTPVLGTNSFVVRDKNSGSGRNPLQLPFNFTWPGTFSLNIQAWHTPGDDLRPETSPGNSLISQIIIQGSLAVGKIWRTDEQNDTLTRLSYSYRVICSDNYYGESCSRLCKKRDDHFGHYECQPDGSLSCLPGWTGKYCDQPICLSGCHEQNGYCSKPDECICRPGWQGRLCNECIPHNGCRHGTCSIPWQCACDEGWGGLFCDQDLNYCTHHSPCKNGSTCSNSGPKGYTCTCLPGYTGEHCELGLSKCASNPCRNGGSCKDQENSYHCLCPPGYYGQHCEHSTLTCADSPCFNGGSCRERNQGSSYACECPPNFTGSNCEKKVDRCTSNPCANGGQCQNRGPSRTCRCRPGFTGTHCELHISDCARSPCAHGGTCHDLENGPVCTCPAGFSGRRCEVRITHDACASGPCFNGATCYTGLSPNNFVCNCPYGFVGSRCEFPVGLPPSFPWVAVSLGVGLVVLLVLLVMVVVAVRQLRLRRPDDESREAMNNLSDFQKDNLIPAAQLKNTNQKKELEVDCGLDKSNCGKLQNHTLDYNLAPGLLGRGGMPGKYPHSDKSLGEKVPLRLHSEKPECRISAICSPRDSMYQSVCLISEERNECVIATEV
The experiment in a line: FMAT, labelled hNotch1-Fc on CHO-mDLL4, periplasmic extract.
From the text: as §1
B1: the “% inh” value is 73%.

Take B2: the “% inh” value came out at 71%.

As to B3, the “% inh” value amounted to 83%.

With B4, the “% inh” value was determined as 93%.
